Measurements: patent CN114031685A

Experiments:
[1] = target: SARS-CoV-2 Omicron株 S-ECD蛋白 (SARS-CoV-2 Omicron株 (B.1.1.529))
[2] = target: SARS-CoV-2 Alpha株 S-ECD蛋白 (SARS-CoV-2 Alpha株 (B.1.1.7))
[3] = target: SARS-CoV-2 Beta株 S-ECD蛋白 (SARS-CoV-2 Beta株 (B.1.351))
[4] = target: SARS-CoV-2 Gamma株 S-ECD蛋白 (SARS-CoV-2 Gamma株 (P.1))
[5] = target: SARS-CoV-2 Delta株 S-ECD蛋白 (SARS-CoV-2 Delta株 (B.1.617.2))

B1: 抗SARS-CoV-2全人源单克隆抗体ZW2G10 (antibody, V domains shown)
VH: EVQLVESGGGLVQPGRSLRLSCAASGFTFDDYAMHWVRQAPGKGLEWVSGITWNSGTIGYADSVKGRFIISRDNAKNSLHLQMNSLRVEDTALYYCAKDNSDYSGYYWELENYGMDVWGQGTTVTVSS
VL: QSVLTQPPSVSGAPGQRVTISCTGSSSNIGAGYDVHWYQQLPGTAPKLLIYDNNNRPSGVPDRFSGSKSGTSASLAITGLQAEDEADYYCQSFDSSLSGVVFGGGTRLTVLR
Kd [1]: 0.765 nM
Kd [2]: 0.166 nM
Kd [3]: 0.518 nM
Kd [4]: 0.615 nM
Kd [5]: 5.45 nM
